# Assay results taken from publication doi:10.1101/2022.02.27.481910 (bioRxiv, 2022).
# B1: KaiC-EE (S431E, T432E) (enzyme)
# chain: EHQAIAKMRTMIEGFDDISHGGLPIGRSTLVSGTSGTGKTLFSIQFLYNGIIEFDEPGVFVTFEETPQDIIKNARSFGWDLAKLVDEGKLFILDASPDPEGQEVVGGFDLSALIERINYAIQKYRARRVSIDSVTSVFQQYDASSVVRRELFRLVARLKQIGATTVMTTERIEEYGPIARYGVEEFVSDNVVILRNVLEGERRRRTLEILKLRGTSHMKGEYPFTITDHGINIFPLGAMRLTQRSSNVRVSSGVVRLDEMCGGGFFKDSIILATGATGTGKTLLVSRFVENACANKERAILFAYEESRAQLLRNAYSWGMDFEEMERQNLLKIVCAYPESAGLEDHLQIIKSEINDFKPARIAIDSLSALARGVSNNAFRQFVIGVTGYAKQEEITGLFTNTSDQFMGAHSITDSHIEEITDTIILLQYVEIRGEMSRAINVFKMRGSWHDKAIREFMISDKGPDIKDSFRNFERIISGSPTRI
# What was measured:
# [1] = target: KaiC-AA (S431A, T432A) (UniProt Q79PF4); test: cryo-EM structure
# [2] = target: the molecule itself; test: cryo-EM structure
Molecule,stoichiometry N [1],stoichiometry N [2]
"KaiC-AA (S431A, T432A) (from UniProt Q79PF4 14-484) (enzyme)",6,–
B1,–,6
